Publication PMC10023157, “Peptides that Mimic RS repeats modulate phase separation of SRSF1, revealing a reliance on combined stacking and electrostatic interactions”

Experiments:
Assay in all cases: not stated; Fluorescence polarization: 100 mM ER4 peptide, 400 mM Arg/Glu, pH 6.5; temperature not stated; three technical replicates
Settings in all cases: protein: recombinant; tags: SUMO (pSMT3) His tag removed by Ulp1
SRSF1 NoC = SRSF1 NoC (human, UniProt Q07955 1-248, C16S;C148S)
SRSF1 N220C = SRSF1 N220C (human, UniProt Q07955 1-248, C16S;C148S;N220C)
SRSF1 T248C = SRSF1 T248C (human, UniProt Q07955 1-248, C16S;C148S;T248C)

Measured: binding result

Sequence of SRSF1 NoC (Q07955 whole entry C16S/C148S): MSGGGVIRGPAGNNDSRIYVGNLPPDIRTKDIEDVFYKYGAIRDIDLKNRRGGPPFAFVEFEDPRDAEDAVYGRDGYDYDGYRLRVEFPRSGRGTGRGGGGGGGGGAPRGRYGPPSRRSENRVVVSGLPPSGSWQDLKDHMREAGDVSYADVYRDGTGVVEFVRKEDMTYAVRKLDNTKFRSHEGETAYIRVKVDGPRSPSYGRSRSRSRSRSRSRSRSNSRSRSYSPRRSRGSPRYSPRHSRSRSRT
Sequence of SRSF1 N220C (Q07955 whole entry C16S/C148S/N220C): as the sequence (Q07955 whole entry C16S/C148S) above, with N220C counted along it
Sequence of SRSF1 T248C (Q07955 whole entry C16S/C148S/T248C): as the sequence (Q07955 whole entry C16S/C148S) above, with T248C counted along it

B1: UCAGAGGA (SRSF1 cognate RNA) (ssRNA)
RNA: UCAGAGGA
binds: all assays above
